Measured values as given in patent US20200087400A1 (EUREKA THERAPEUTICS, published 2020).
Where a chain is given by its changes, count along the chain named.

B1: PSA146/HLA-A*02:01-specific scFv phage clone #6 (scFv, V domains shown)
VH: EVQLVQSGAEVKKPGASVKVSCKASGYTFTGYYIHWVRQAPGQGLEWMGGFDPEDGETIYAQKFQDRVTMTADTSTDTAYMELSSLRSEDTAVYYCARYGFDYWGQGTLVTVSS
VL: QAVVTQEPSLTVSPGGTVTLTCASSTGAVTSGYYPNWFQLKPGQAPRALIYTTGKKHSWAPARFSGSLLGGKAALTLSGVQPEDEAEYYCLLYSGGVWVFGGGTKLTVLG
B2: PSA146/HLA-A*02:01-specific scFv phage clone #2 (scFv, V domains shown)
VH: EVQLVQSGAEVKRPGSSVKVSCKASGGTFSSYAINWVRRAPGQGLEWMGKIIPIPGITNYAQKFQDRVTFTADTSTNIAYMELSSLRSEDTAMYYCARSYKWGSSLVDAWGQGTLVTVSS
VL: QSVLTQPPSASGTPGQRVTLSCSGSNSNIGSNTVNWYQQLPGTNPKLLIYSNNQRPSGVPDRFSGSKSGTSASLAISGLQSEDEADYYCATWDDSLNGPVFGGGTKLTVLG
B3: PSA146/HLA-A*02:01-specific scFv phage clone #3 (scFv, V domains shown)
VH: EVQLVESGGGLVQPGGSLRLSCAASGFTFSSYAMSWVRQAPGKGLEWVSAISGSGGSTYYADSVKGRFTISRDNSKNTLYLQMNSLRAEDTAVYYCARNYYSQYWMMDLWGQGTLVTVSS
VL: QSVLTQPPSVSGAPGQRVTISCTGSSSNFGAGYDVHWYQQLPGAAPKLLIYGDTNRPSGVPDRFSGSKSGTSASLAITGLQAEDEADYYCQSYDTSLSGSVFGGGTKLTVLG
B4: PSA146/HLA-A*02:01-specific scFv phage clone #5 (scFv, V domains shown)
VH: QVQLVQSGAEVKKPGDSVKVSCKPSGYNFLNYGINWVRQAPGQGLEWMGWISTYTGNTNYAQKLQGRVTFTTDTSTSTAYMEMRSLRSDDTAVYYCARSSEYYTWDHWGQGTLVTVSS
VL: B3 VL with F29I, A44T, D53N, T54S, T95S, S100W
B5: PSA146/HLA-A*02:01-specific scFv phage clone #17 (scFv, V domains shown)
VH: QMQLVQSGAEVKKPGESLKISCKGSGYSFTSYWIGWVRQMPGKGLEWMGIIYPGDSDTRYSPSFQGQVTISADKSISTAYLQWSSLKASDTAMYYCARLVVPDAFDIWGQGTMVTVSS
VL: QSVVTQPPSVSAAPGQKVTISCSGSSSNIGNNYVSWYQQLPGTAPKLLIYDNYKRPSGIPDRFSGSKSGTSATLGITGLQTGDEADYYCGTWDSSLSAGVFGGGTKLTVLG

These binders were tested against T1, Bio-P19 member A2E-2 (chain 2 carries a C-terminal BirA substrate peptide (BSP), enzymatically biotinylated; the BSP letters are not given in the patent and are left out) (assay: phage ELISA, streptavidin plate, anti-M13-HRP).
T1 construct: also called biotinylated control peptide A2E-2/HLA-A*02:01 monomer
In short: (§1)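 T2 cells + peptide + β2M → purified scFv phage → mouse anti-M13 mAb → R-PE anti-mouse IgG; each step 30-60 min on ice, two washes between. ELISA: phage clones on coated plate, HRP anti-M13, A450.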
B1: no binding.
B2: no binding.
B3: no binding.
B4: no binding.

These binders were tested against T2, Bio-P19 member A2E-23 (chain 2 carries a C-terminal BirA substrate peptide (BSP), enzymatically biotinylated; the BSP letters are not given in the patent and are left out) (assay: phage ELISA, streptavidin plate, anti-M13-HRP).
T2 construct: also called biotinylated control peptide A2E-23/HLA-A*02:01 monomer
In short: as §1
B1: no binding.
B2: no binding.
B3: no binding.
B4: no binding.

What follows are binders tested against T3, Bio-P19 member A2E-3 (chain 2 carries a C-terminal BirA substrate peptide (BSP), enzymatically biotinylated; the BSP letters are not given in the patent and are left out) (assay: phage ELISA, streptavidin plate, anti-M13-HRP).
T3 construct: also called biotinylated control peptide A2E-3/HLA-A*02:01 monomer
In short: as §1
B1: no binding.
B2: no binding.
B3: no binding.
B4: no binding.

These binders were tested against T4, control peptide A2E-1/HLA-A*02:01 complex on T2 cells (member of the P19 mixture) (human) (assay: flow cytometry, phage on T2 cells).
T4 construct: Loaded on T2 cells as part of the mixture of 19 control peptides
Method: (§2) Individual phage clones from enriched phage display panning pools against PSA146/HLA-A*02:01 complex were incubated in the coated plates. Binding of the phage clones was detected by HRP-conjugated anti-M13 antibodies and developed using HRP substrate. The absorbance was read at 450 nm. […] Then, unique antibody clones were identified through DNA sequencing of ELISA-positive clones. […] T2 cells loaded with different peptides and β2M were first stained with purified scFv phage clones, followed by staining with a mouse anti-M13 mAb, and finally R-PE conjugated horse anti-mouse IgG from Vector Labs. Each step of the staining was performed for between 30-60 minutes on ice and the cells were washed twice between stainings. All 16 clones recognized PSA146-loaded T2 cells specifically. FIG. 3 provides examples of PSA146/HLA-A*02:01 specific phage clone binding to peptide-loaded T2 cells through FACS.
B1: no binding.
B2: no binding.
B3: no binding.
B4: no binding.
B5: no binding.

These binders were tested against T5, control peptide A2E-14/HLA-A*02:01 complex on T2 cells (member of the P19 mixture) (human) (assay: flow cytometry, phage on T2 cells).
T5 construct: Loaded on T2 cells as part of the mixture of 19 control peptides
Method: as §2
B1: no binding.
B2: no binding.
B3: no binding.
B4: no binding.
B5: no binding.

These binders were tested against T6, control peptide A2E-15/HLA-A*02:01 complex on T2 cells (member of the P19 mixture) (human) (assay: flow cytometry, phage on T2 cells).
T6 construct: Loaded on T2 cells as part of the mixture of 19 control peptides
Method: as §2
B1: no binding.
B2: no binding.
B3: no binding.
B4: no binding.
B5: no binding.

What follows are binders tested against T7, control peptide A2E-21/HLA-A*02:01 complex on T2 cells (member of the P19 mixture) (human) (assay: flow cytometry, phage on T2 cells).
T7 construct: Loaded on T2 cells as part of the mixture of 19 control peptides
Method: as §2
B1: no binding.
B2: no binding.
B3: no binding.
B4: no binding.
B5: no binding.

What follows are binders tested against T8, control peptide A2E-2/HLA-A*02:01 complex on T2 cells (member of the P19 mixture) (human) (assay: flow cytometry, phage on T2 cells).
T8 construct: Loaded on T2 cells as part of the mixture of 19 control peptides
Method: as §2
B1: no binding.
B2: no binding.
B3: no binding.
B4: no binding.
B5: no binding.

The binders below were run against T9, control peptide A2E-4/HLA-A*02:01 complex on T2 cells (member of the P19 mixture) (human) (assay: flow cytometry, phage on T2 cells).
T9 construct: Loaded on T2 cells as part of the mixture of 19 control peptides
Method: as §2
B1: no binding.
B2: no binding.
B3: no binding.
B4: no binding.
B5: no binding.

These binders were tested against T10, control peptide A2E-17/HLA-A*02:01 complex on T2 cells (member of the P19 mixture) (human) (assay: flow cytometry, phage on T2 cells).
T10 construct: Loaded on T2 cells as part of the mixture of 19 control peptides
Method: as §2
B1: no binding.
B2: no binding.
B3: no binding.
B4: no binding.
B5: no binding.

These binders were tested against T11, control peptide A2E-8/HLA-A*02:01 complex on T2 cells (member of the P19 mixture) (human) (assay: flow cytometry, phage on T2 cells).
T11 construct: Loaded on T2 cells as part of the mixture of 19 control peptides
Method: as §2
B1: no binding.
B2: no binding.
B3: no binding.
B4: no binding.
B5: no binding.

These binders were tested against T12, control peptide A2E-5/HLA-A*02:01 complex on T2 cells (member of the P19 mixture) (human) (assay: flow cytometry, phage on T2 cells).
T12 construct: Loaded on T2 cells as part of the mixture of 19 control peptides
Method: as §2
B1: no binding.
B2: no binding.
B3: no binding.
B4: no binding.
B5: no binding.

The binders below were run against T13, control peptide A2E-13/HLA-A*02:01 complex on T2 cells (member of the P19 mixture) (human) (assay: flow cytometry, phage on T2 cells).
T13 construct: Loaded on T2 cells as part of the mixture of 19 control peptides
Method: as §2
B1: no binding.
B2: no binding.
B3: no binding.
B4: no binding.
B5: no binding.

Each binder was assayed against T14, control peptide A2E-11/HLA-A*02:01 complex on T2 cells (member of the P19 mixture) (human) (assay: flow cytometry, phage on T2 cells).
T14 construct: Loaded on T2 cells as part of the mixture of 19 control peptides
Method: as §2
B1: no binding.
B2: no binding.
B3: no binding.
B4: no binding.
B5: no binding.

The binders below were run against T15, control peptide A2E-6/HLA-A*02:01 complex on T2 cells (member of the P19 mixture) (human) (assay: flow cytometry, phage on T2 cells).
T15 construct: Loaded on T2 cells as part of the mixture of 19 control peptides
Method: as §2
B1: no binding.
B2: no binding.
B3: no binding.
B4: no binding.
B5: no binding.

These binders were tested against T16, control peptide A2E-3/HLA-A*02:01 complex on T2 cells (member of the P19 mixture) (human) (assay: flow cytometry, phage on T2 cells).
T16 construct: Loaded on T2 cells as part of the mixture of 19 control peptides
Method: as §2
B1: no binding.
B2: no binding.
B3: no binding.
B4: no binding.
B5: no binding.

Each binder was assayed against T17, control peptide A2E-7/HLA-A*02:01 complex on T2 cells (member of the P19 mixture) (human) (assay: flow cytometry, phage on T2 cells).
T17 construct: Loaded on T2 cells as part of the mixture of 19 control peptides
Method: as §2
B1: no binding.
B2: no binding.
B3: no binding.
B4: no binding.
B5: no binding.

Each binder was assayed against T18, control peptide A2E-16/HLA-A*02:01 complex on T2 cells (member of the P19 mixture) (human) (assay: flow cytometry, phage on T2 cells).
T18 construct: Loaded on T2 cells as part of the mixture of 19 control peptides
Method: as §2
B1: no binding.
B2: no binding.
B3: no binding.
B4: no binding.
B5: no binding.

The binders below were run against T19, control peptide A2E-19/HLA-A*02:01 complex on T2 cells (member of the P19 mixture) (human) (assay: flow cytometry, phage on T2 cells).
T19 construct: Loaded on T2 cells as part of the mixture of 19 control peptides
Method: as §2
B1: no binding.
B2: no binding.
B3: no binding.
B4: no binding.
B5: no binding.

These binders were tested against T20, control peptide A2E-10/HLA-A*02:01 complex on T2 cells (member of the P19 mixture) (human) (assay: flow cytometry, phage on T2 cells).
T20 construct: Loaded on T2 cells as part of the mixture of 19 control peptides
Method: as §2
B1: no binding.
B2: no binding.
B3: no binding.
B4: no binding.
B5: no binding.

The binders below were run against T21, control peptide A2E-9/HLA-A*02:01 complex on T2 cells (member of the P19 mixture) (human) (assay: flow cytometry, phage on T2 cells).
T21 construct: Loaded on T2 cells as part of the mixture of 19 control peptides
Method: as §2
B1: no binding.
B2: no binding.
B3: no binding.
B4: no binding.
B5: no binding.

The binders below were run against T22, control peptide A2E-23/HLA-A*02:01 complex on T2 cells (member of the P19 mixture) (human) (assay: flow cytometry, phage on T2 cells).
T22 construct: Loaded on T2 cells as part of the mixture of 19 control peptides
Method: as §2
B1: no binding.
B2: no binding.
B3: no binding.
B4: no binding.
B5: no binding.

Each binder was assayed against T23, PSA 146-154 peptide/HLA-A*02:01 complex on the cell surface (human) (assay: flow cytometry, phage on T2 cells, anti-M13 + R-PE anti-mouse IgG).
T23 construct: also called PSA146/HLA-A*02:01; PSA146-loaded T2 cells
In short: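 Phage ELISA: individual scFv phage clones from panning pools enriched against PSA146/HLA-A*02:01 were incubated in coated streptavidin plates; binding was detected with HRP anti-M13 and HRP substrate, read at 450 nm. For flow cytometry, T2 cells loaded with peptide and β2M were stained with purified phage clones.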
B1: binds.
B2: binds.
B3: binds.
B4: binds.
B5: binds.
